Reference: publication PMC2881700 (Journal of immunology (Baltimore, Md. : 1950), 2010)

Key:
Experiment in all cases: radioligand binding
[1] = biological target: MD-2Flag.His6/FlagTLR4ecd (wild type) complex (human, UniProt Q9Y6Y9 19-160; O00206 24-631)
[2] = biological target: MD-2Flag.His6/FlagTLR4ecd D299G.T399I complex (human, UniProt Q9Y6Y9 19-160; O00206 24-631, D299G | T399I)
[3] = biological target: FlagTLR4ecd, wild type (extracellular domain of human TLR4, residues 24-631) (human, UniProt O00206 24-631)
FlagTLR4ecd, wild type (extracellular domain of human TLR4, residues 24-631), sequence (O00206 24-631): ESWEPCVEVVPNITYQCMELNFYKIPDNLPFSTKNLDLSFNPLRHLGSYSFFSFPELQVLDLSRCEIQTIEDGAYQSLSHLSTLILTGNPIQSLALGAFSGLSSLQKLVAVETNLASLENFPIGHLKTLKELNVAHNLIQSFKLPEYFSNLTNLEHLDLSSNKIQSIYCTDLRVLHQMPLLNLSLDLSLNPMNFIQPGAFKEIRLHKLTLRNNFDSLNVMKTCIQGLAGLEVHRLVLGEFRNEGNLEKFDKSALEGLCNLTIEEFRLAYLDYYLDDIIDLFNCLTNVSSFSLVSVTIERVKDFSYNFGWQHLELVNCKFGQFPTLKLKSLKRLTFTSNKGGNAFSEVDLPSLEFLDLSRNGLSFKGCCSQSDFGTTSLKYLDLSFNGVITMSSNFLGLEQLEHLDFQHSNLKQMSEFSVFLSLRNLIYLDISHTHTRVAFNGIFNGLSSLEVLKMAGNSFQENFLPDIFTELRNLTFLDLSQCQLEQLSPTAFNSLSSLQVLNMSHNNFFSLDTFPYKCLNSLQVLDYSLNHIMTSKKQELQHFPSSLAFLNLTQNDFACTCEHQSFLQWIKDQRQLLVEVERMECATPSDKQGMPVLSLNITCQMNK

[4] = biological target: full-length D299G.T399I TLR4 expressed on HEK293T cells without MD-2 (human, UniProt O00206 24-839, D299G | T399I)
full-length D299G.T399I TLR4 expressed on HEK293T cells without MD-2, sequence (O00206 24-839 D299G/T399I): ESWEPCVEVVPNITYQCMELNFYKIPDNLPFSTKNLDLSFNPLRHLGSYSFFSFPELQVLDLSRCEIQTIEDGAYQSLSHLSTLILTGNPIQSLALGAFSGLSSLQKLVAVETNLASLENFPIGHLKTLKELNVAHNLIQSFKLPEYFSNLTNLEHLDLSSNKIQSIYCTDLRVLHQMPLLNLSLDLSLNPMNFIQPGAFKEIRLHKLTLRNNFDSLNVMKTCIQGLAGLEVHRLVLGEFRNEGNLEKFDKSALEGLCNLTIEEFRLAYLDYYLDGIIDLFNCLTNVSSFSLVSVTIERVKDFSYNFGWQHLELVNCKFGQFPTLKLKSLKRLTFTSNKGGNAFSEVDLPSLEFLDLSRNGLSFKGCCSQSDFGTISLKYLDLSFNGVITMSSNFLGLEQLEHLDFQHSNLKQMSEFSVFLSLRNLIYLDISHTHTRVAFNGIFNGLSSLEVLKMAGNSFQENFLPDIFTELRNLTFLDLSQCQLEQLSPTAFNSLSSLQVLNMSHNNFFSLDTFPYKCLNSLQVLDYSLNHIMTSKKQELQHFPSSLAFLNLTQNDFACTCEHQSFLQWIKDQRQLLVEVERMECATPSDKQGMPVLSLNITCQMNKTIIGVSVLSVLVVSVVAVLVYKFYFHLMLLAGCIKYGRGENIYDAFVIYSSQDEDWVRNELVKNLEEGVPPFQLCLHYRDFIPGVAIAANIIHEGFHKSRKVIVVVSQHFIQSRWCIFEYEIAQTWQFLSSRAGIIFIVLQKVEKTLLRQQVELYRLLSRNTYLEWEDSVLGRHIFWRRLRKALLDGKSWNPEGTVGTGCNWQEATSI

MD-2Flag.His6/FlagTLR4ecd D299G.T399I complex, sequence (O00206 24-631 D299G/T399I, one chain of several): as the sequence (O00206 24-631) above, with D276G, T376I counted along it
MD-2Flag.His6/FlagTLR4ecd (wild type) complex, sequence (O00206 24-631, one chain of several): as the sequence (O00206 24-631) above

B1: monomeric [3H]LOS·sCD14 complex (endotoxin·CD14) (natural protein, UniProt P08571 20-345, looked up)
chain: TTPEPCELDDEDFRCVCNFSEPQPDWSEAFQCVSAVEVEIHAGGLNLEPFLKRVDADADPRQYADTVKALRVRRLTVGAAQVPAQLLVGALRVLAYSRLKELTLEDLKITGTMPPLPLEATGLALSSLRLRNVSWATGRSWLAELQQWLKPGLKVLSIAQAHSPAFSCEQVRAFPALTSLDLSDNPGLGERGLMAALCPHKFPAIQNLALRNTGMETPTGVCAALAAAGVQPHSLDLSHNSLRATVNPSAPRCMWSSALNSLNLSFAGLEQVPKGLPAKLRVLDLSCNRLNRAPQPDELPEVDNLTLDGNPFLVPGTALPHEGSMN
**Q.** With B1 as the binder, how does the Kd [1] read?
**A.** The Kd was 0.196 nM.

**Q.** And the Kd [2]?
**A.** The Kd was 0.186 nM.

B2: monomeric [3H]LOS·MD-2His6 complex (endotoxin·MD-2) (natural protein)
chain: QKQYWVCNSSDASISYTYCDKMQYPISINVNPCIELKRSKGLLHIFYIPRRDLKQLYFNLYITVNTMNLPKRKEVICRGSDDDYSFCRALKGETVNTTISFSFKGIKFSKGKYKCVVEAISGSPEEMLFCLEFVILHQPNSN
**Q.** How did the Kd [3] turn out when B2 was run?
**A.** The Kd was 0.221 ± 0.043 nM.

**Q.** What about the “fold reduction of cell binding against wt TLR4” value [4] of the same binder?
**A.** The value was at least 10 fold.
